Assay results from US20250041455A1 (Regeneron, published 2025).

B1: 12802B scFv (VH-VK) (scFv)
chain: QVQLVESGGGLVKPGGSLRLSCAASGFTFSDYFMSWIRQAPGKGLEWVSYISSTGSTINYADSVKGRFTISRDNVKNSLYLQMTSLRVEDTAVYYCTRDNWNYEYWGQGTLVTVSSEIVMTQSPATLSVSPGERATLSCRASQSVSINLAWYQQKPGQAPRLLIFVASTRATGIPARFSGSGSGTEFTLTISSLQSEDFATYYCQQYDIWPYTFGQGTKLEIK
B2: 12799B scFv (VH-VK) (scFv)
chain: QITLKESGPTLVKPTQTLTLTCTFSGFSLSTSGVGVVWIRQPPGKALEWLALIYWNDHKRYSPSLGSRLTITKDTSKNQVVLTMTNMDPVDTATYYCAHYSGSYSYYYYGLDVWGQGTTVTVSSDIQMTQSPSSVSASVGDRVTITCRASQGIASWLAWYQQKPGKAPELLIYAASSLQGGVPSRFSGSGSGTDFTLTISSLQPEDFAIYYCQQANYFPWTFGQGTKVEIK
B3: 12798B scFv (VH-VK) (scFv)
chain: EVQLVESGGDLVQPGRSLRLSCAASGFTFDDYAMHWVRQAPGKGLEWVSGISWNSATRVYADSVKGRFTISRDNAKNFLYLQMNSLRSEDTALYHCAKDMDISLGYYGLDVWGQGTTVTVSSEIVMTQSPATLSVSPGERATLSCRASQTVSSNLAWYQQKPGQAPRLLIYGSSSRATGIPARFSGSGSGTEFTLTISSLQSEDFAVYYCQQYNNWPPYTFGQGTKLEIK
B4: 12812B scFv (VH-VK) (scFv)
chain: QVQLVQSGAEVKKPGSSVRVSCKASRGTFSSYAISWVRQAPGQGLEWMGGIIPIFGTANYAQKFLARVTITADESTSTAYMELSSLRSEDTAVYYCAREKGWNYFDYWGQGTLVTVSSDIQMTQSPPSVSASVGDRVTITCRASQGISSWLAWYQQKPGKAPKLLIYAASSLQSGVPSRFSGSGSGTDFTLTISSLQPEDFATYYCQQANSFPRTFGQGTKVEIK
B5: 69307 scFv (VH-VK) (scFv)
chain: EVQLVESGGGLVQPGGSLRLSCTASGFTFSNYWMTWVRQAPGKGLEWVANIKEDGSEKEYVDSVKGRFTISRDNAKNSLYLQMNSLRGEDTAVYYCARDGEQLVDYYYYYVMDVWGQGTTVTVSSDIQMTQSPSSVSASVGDRVTITCRASQGISSWLAWYQQKPGKAPKLLIYAASSLQSGVPSRFSGSGSGTDFTLTISSLQPEDFATYYCQKADSLPYAFGQGTKLEIK

Molecular target: T1, hmm.hTfRC (REGN2431) (human, UniProt P02786 89-760)
T1 construct: also called hmm.hTfR(C89-F763); His-myc-myc-hTFRC ecto
T1 sequence (P02786 other isoform, or with tags, fused parts or gaps): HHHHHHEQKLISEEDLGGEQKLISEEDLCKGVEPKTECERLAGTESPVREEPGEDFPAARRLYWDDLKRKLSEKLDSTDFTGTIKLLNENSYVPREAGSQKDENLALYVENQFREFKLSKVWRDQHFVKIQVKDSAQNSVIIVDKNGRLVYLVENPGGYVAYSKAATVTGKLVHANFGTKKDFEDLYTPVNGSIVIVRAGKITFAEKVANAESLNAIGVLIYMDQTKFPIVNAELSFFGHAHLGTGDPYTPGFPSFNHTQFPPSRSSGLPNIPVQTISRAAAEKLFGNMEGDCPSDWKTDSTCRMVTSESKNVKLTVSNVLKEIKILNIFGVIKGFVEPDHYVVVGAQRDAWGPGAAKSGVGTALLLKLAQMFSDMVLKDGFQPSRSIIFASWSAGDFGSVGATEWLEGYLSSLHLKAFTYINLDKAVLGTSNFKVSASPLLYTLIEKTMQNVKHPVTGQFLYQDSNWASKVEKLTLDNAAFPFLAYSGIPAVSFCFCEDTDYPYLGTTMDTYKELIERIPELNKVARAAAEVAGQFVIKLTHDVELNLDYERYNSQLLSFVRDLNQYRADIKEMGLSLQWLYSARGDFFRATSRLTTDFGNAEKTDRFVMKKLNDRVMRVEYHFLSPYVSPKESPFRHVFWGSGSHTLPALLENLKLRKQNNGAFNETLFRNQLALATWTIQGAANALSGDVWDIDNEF
Assay: blocking ELISA; Hmm-hTFRC + supernatant on plate-bound holo-Tf

Row | Binder | % Blocking [%]
1 | B1 | 11
2 | B2 | 26
3 | B3 | 0
4 | B4 | 19
5 | B5 | 9
